Reference: publication PMC11559096

Assays:
[1] = molecular target: MHV-2 spike (S) protein, uncleaved 180 kDa, on authentic virus (mouse hepatitis virus type 2 (MHV-2)); test: SDS-PAGE of samples heated in 1% SDS (dissociation temperature of the trimer); receptor-binding state (MHV-2 with soluble receptor), with or without HR2-peptide; 5 mM Pefabloc SC and 1% SDS on ice, then 10 min at the indicated temperatures; western blot with MAb10G; trimer to monomers
[2] = molecular target: MHV-2 spike (S) protein, uncleaved 180 kDa, on authentic virus (mouse hepatitis virus type 2 (MHV-2)); test: SDS-PAGE of samples heated in 1% SDS (dissociation temperature of the trimer); pre-fusion state (untreated MHV-2), with or without HR2-peptide; 5 mM Pefabloc SC and 1% SDS on ice, then 10 min at the indicated temperatures; western blot with MAb10G; trimer to monomers
[3] = molecular target: MHV-2 S2 fragments made by trypsin after receptor binding (69 and 67 kDa) (mouse hepatitis virus type 2 (MHV-2)); test: SDS-PAGE of samples heated in 1% SDS (dissociation temperature of the trimer); MHV-2 with receptor, then trypsin at 37°C, in the presence of the HR2-peptide; 5 mM Pefabloc SC and 1% SDS on ice, then 10 min at the indicated temperatures; western blot with MAb10G; trimer to monomers
[4] = molecular target: MHV-2 S2 fragments made by trypsin after receptor binding (69 and 67 kDa) (mouse hepatitis virus type 2 (MHV-2)); test: SDS-PAGE of samples heated in 1% SDS (dissociation temperature of the trimer); post-fusion state (MHV-2 with receptor, then trypsin at 37°C), no HR2-peptide; 5 mM Pefabloc SC and 1% SDS on ice, then 10 min at the indicated temperatures; western blot with MAb10G; trimer to monomers

Row | Substance | dissociation temperature of the trimer in 1% SDS [1] | dissociation temperature of the trimer in 1% SDS [2] | stoichiometry N [2] | dissociation temperature of the trimer in 1% SDS [3] | dissociation temperature of the trimer in 1% SDS [4] | stoichiometry N [4]
1 | MHV-2 spike (S) protein, uncleaved 180 kDa, on authentic virus (natural protein) | 65 °C | < 25 °C | 3 | – | – | –
2 | MHV-2 S2 fragments made by trypsin after receptor binding (69 and 67 kDa) (domain or fragment) | – | – | – | 80 °C | 100 °C | 3
